Results on four molecules are retold here after publication doi:10.1101/2025.08.21.671500.

Series [1] concerns the target T1, FOXA2 forkhead domain (UniProt Q9Y261 159-252).
T1 sequence: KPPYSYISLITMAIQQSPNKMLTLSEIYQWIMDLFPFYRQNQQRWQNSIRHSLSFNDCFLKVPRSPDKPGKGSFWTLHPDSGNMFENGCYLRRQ
Briefly: EMSA. A general note: A gel shift assay detects complexes by their altered migration in electrophoresis.

Series [2] addresses T2, FOXA1 forkhead domain;FOXA2 forkhead domain, Twin-Strep-tagged (human?;human?, UniProt P55317;Q9Y261 169-260;159-252, |).
T2 sequence 1: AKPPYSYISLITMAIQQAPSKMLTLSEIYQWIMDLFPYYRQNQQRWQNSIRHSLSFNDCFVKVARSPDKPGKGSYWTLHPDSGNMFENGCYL
T2 sequence 2: T1 sequence
Briefly: EMSA.

Series [3] has as its target T3, FOXA1 forkhead domain (UniProt P55317 169-260).
T3 sequence: T2 sequence 1
The experiment in a line: EMSA.

Series [4] addresses T3, FOXA1 forkhead domain. Briefly: BLI.
The target in series [5] is T1, FOXA2 forkhead domain. Briefly: BLI. In general terms: In BLI a coated tip is dipped into the sample, and binding shifts an interference pattern.

B1: 2C (two canonical motifs separated by 3 nt) (dsDNA)
DNA 1: CCGCCGTATTTACTGAGTAAATAGCCGCC
DNA 2: GGCGGCTATTTACTCAGTAAATACGGCGG
Turning to B1, the binding result (with FOXA2 forkhead domain [1]; in series [2]; in the series with FOXA1 forkhead domain [3]) was “binds” each time.

B2: PAL (extended palindromic motif) (dsDNA)
DNA 1: CCGCCGTAAGTAAATATTTACTTAGCCGCC
DNA 2: GGCGGCTAAGTAAATATTTACTTACGGCGG
For the molecule B2, the binding result (with FOXA2 forkhead domain [1]; in series [2]; with FOXA1 forkhead domain [3]) was “binds” throughout.

B3: C (canonical FOXA motif) (dsDNA)
DNA 1: CCGCCGCCGTGTTTACTTTGCCGCCGCC
DNA 2: GGCGGCGGCAAAGTAAACACGGCGGCGG
In the case of B3, the binding result with FOXA2 forkhead domain [1] is listed as “binds”.

B4: BLI 40-mer (dsDNA)
DNA 1: GTGTCTCCTGCTCTGTCAGCAGGGCACTGTACTTGCTGAT
DNA 2: ATCAGCAAGTACAGTGCCCTGCTGACAGAGCAGGAGACAC
With B4, the binding result in the series with FOXA1 forkhead domain [4] and in the series with FOXA2 forkhead domain [5] was “binds” in each case.
